Source: publication PMC3005623 (Journal of molecular biology, 2010)
Where a chain is given by its changes, count along the chain named. Names may count otherwise. Like-named read-outs stand apart in the source and are kept apart here. One block for each binder: values may come before it.

How the values were obtained:
[1] = target: the molecule itself; test: electron microscopy of lipid monolayers
[2] = target: the molecule itself; test: electron microscopy of lipid monolayers; remark: listed apart in the source
[3] = target: the molecule itself; test: electron microscopy of lipid monolayers; remark: listed apart in the source
Cdc12 = target: T1, Cdc12 (S. cerevisiae, UniProt P32468 1-407); test: negative-stain electron microscopy
T1 sequence (looked up): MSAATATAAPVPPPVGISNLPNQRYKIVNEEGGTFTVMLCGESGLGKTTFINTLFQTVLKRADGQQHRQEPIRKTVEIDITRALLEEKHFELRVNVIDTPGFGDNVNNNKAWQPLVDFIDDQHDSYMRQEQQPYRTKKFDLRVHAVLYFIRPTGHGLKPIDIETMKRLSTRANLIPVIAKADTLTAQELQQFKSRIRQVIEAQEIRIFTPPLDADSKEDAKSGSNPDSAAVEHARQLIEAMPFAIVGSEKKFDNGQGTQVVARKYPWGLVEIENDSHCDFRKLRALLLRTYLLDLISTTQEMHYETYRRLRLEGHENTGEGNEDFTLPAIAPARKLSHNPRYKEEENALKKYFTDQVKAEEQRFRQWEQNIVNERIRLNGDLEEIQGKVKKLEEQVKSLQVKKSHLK

B1: Cdc12–(His)6-Cdc3–Cdc10–Cdc11(Δ306–415) complex (complex, S. cerevisiae)
chain 1: T1 sequence (looked up)
chain 2: MSLKEEQVSIKQDPEQEERQHDQFNDVQIKQESQDHDGVDSQYTNGTQNDDSERFEAAESDVKVEPGLGMGITSSQSEKGQVLPDQPEIKFIRRQINGYVGFANLPKQWHRRSIKNGFSFNLLCVGPDGIGKTTLMKTLFNNDDIEANLVKDYEEELANDQEEEEGQGEGHENQSQEQRHKVKIKSYESVIEENGVKLNLNVIDTEGFGDFLNNDQKSWDPIIKEIDSRFDQYLDAENKINRHSINDKRIHACLYFIEPTGHYLKPLDLKFMQSVYEKCNLIPVIAKSDILTDEEILSFKKTIMNQLIQSNIELFKPPIYSNDDAENSHLSERLFSSLPYAVIGSNDIVENYSGNQVRGRSYPWGVIEVDNDNHSDFNLLKNLLIKQFMEELKERTSKILYENYRSSKLAKLGIKQDNSVFKEFDPISKQQEEKTLHEAKLAKLEIEMKTVFQQKVSEKEKKLQKSETELFARHKEMKEKLTKQLKALEDKKKQLELSINSASPNVNHSPVPTKKKGFLR
chain 3: MDPLSSVQPASYVGFDTITNQIEHRLLKKGFQFNIMVVGQSGLGKSTLINTLFASHLIDSATGDDISALPVTKTTEMKISTHTLVEDRVRLNINVIDTPGFGDFIDNSKAWEPIVKYIKEQHSQYLRKELTAQRERFITDTRVHAILYFLQPNGKELSRLDVEALKRLTEIANVIPVIGKSDTLTLDERTEFRELIQNEFEKYNFKIYPYDSEELTDEELELNRSVRSIIPFAVVGSENEIEINGETFRGRKTRWSAINVEDINQCDFVYLREFLIRTHLQDLIETTSYIHYEGFRARQLIALKENANSRSSAHMSSNAIQR
chain 4: MSGIIDASSALRKRKHLKRGITFTVMIVGQSGSGRSTFINTLCGQQVVDTSTTILLPTDTSTEIDLQLREETVELEDDEGVKIQLNIIDTPGFGDSLDNSPSFEIISDYIRHQYDEILLEESRVRRNPRFKDGRVHCCLYLINPTGHGLKEIDVEFIRQLGSLVNIIPVISKSDSLTRDELKLNKKLIMEDIDRWNLPIYNFPFDEDEISDEDYETNMYLRTLLPFAIIGSNEVYEMGGDVGTIRGRKYPWGILDVEDSSISDFVILRNALLISHLHDLKNYTHEILYERYRTEALSGESVAAES
binding result [1]: binds

B2: Cdc3(G261V) (natural protein, S. cerevisiae, UniProt P32457 1-520, looked up)
chain: B1 chain 2 with G261V
binding result [2]: binds

B3: (His)6–Cdc12-Cdc10-Cdc3 complex (complex, S. cerevisiae)
chain 1: T1 sequence (looked up)
chain 2: B1 chain 3
chain 3: B1 chain 2
binding result [3]: binds

B4: (His)6–Cdc12-Cdc11-Cdc3(G261V) complex (complex, S. cerevisiae)
chain 1: T1 sequence (looked up)
chain 2: MSGIIDASSALRKRKHLKRGITFTVMIVGQSGSGRSTFINTLCGQQVVDTSTTILLPTDTSTEIDLQLREETVELEDDEGVKIQLNIIDTPGFGDSLDNSPSFEIISDYIRHQYDEILLEESRVRRNPRFKDGRVHCCLYLINPTGHGLKEIDVEFIRQLGSLVNIIPVISKSDSLTRDELKLNKKLIMEDIDRWNLPIYNFPFDEDEISDEDYETNMYLRTLLPFAIIGSNEVYEMGGDVGTIRGRKYPWGILDVEDSSISDFVILRNALLISHLHDLKNYTHEILYERYRTEALSGESVAAESIRPNLTKLNGSSSSSTTTRRNTNPFKQSNNINNDVLNPASDMHGQSTGENNETYMTREEQIRLEEERLKAFEERVQQELLLKRQELLQREKELREIEARLEKEAKIKQEE
chain 3: B1 chain 2 with G261V
binding result [2]: binds

percent of particles that are heptamers (Cdc12): 5.4%
B5: Cdc11(Δ2–18) (natural protein, S. cerevisiae, UniProt P32458 1-415, looked up)
chain: MRGITFTVMIVGQSGSGRSTFINTLCGQQVVDTSTTILLPTDTSTEIDLQLREETVELEDDEGVKIQLNIIDTPGFGDSLDNSPSFEIISDYIRHQYDEILLEESRVRRNPRFKDGRVHCCLYLINPTGHGLKEIDVEFIRQLGSLVNIIPVISKSDSLTRDELKLNKKLIMEDIDRWNLPIYNFPFDEDEISDEDYETNMYLRTLLPFAIIGSNEVYEMGGDVGTIRGRKYPWGILDVEDSSISDFVILRNALLISHLHDLKNYTHEILYERYRTEALSGESVAAESIRPNLTKLNGSSSSSTTTRRNTNPFKQSNNINNDVLNPASDMHGQSTGENNETYMTREEQIRLEEERLKAFEERVQQELLLKRQELLQREKELREIEARLEKEAKIKQEE
